Results on 62 sequences are retold here after the supplement of paper PMC9112550, “Optimization of the antimicrobial peptide Bac7 by deep mutational scanning” (BMC Biology, 2022).
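Further: peptides expressed intracellularly from a pBAD plasmid library in pooled LB shake-flask culture, induced with 0.3% L-arabinose, DNA abundance read by NGS, three biological replicates, DESeq2 with apeglm shrinkage.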

The series deals with Escherichia coli TOP10. Nature of the series: shrunken log2 fold change of peptide-encoding DNA abundance (4.5 h post-induction vs induction); higher = less antimicrobial activity (less host growth inhibition). The settings on record: time post-induction: 4.5 h; library: site-saturation at positions 5, 18, 19, 20.
Regarding RRIRQRPPRLPRPRPRPYAFPRP, the “shrunken log2 fold change” value is -0.175.
With RRIRMRPPRLPRPRPRPKNLPRP, the “shrunken log2 fold change” value was -0.102.
On to RRIRSRPPRLPRPRPRPLTEPRP, for which the “shrunken log2 fold change” value worked out at 0.21.
The result for RRIRHRPPRLPRPRPRPMRCPRP reads 0.309; that for RRIRKRPPRLPRPRPRPSNSPRP, 0.13.
For RRIRRRPPRLPRPRPRPTEIPRP, the “shrunken log2 fold change” value was found to be 0.299.
As to RRIRWRPPRLPRPRPRPRVPPRP, the “shrunken log2 fold change” value is 0.444.
Turning to RRIRDRPPRLPRPRPRPCIIPRP, the “shrunken log2 fold change” value is -0.0943.
The result for RRIRPRPPRLPRPRPRPQPCPRP reads -0.0627.
With RRIRDRPPRLPRPRPRPAAGPRP, the “shrunken log2 fold change” value worked out at 0.793.
In the case of RRIRVRPPRLPRPRPRPAGYPRP it was -0.0144; in that of RRIRYRPPRLPRPRPRPHMLPRP, -1.09.
Take RRIRARPPRLPRPRPRPCPDPRP: the “shrunken log2 fold change” value is -0.161.
The result for RRIRGRPPRLPRPRPRPCPFPRP reads -0.218; that for RRIRQRPPRLPRPRPRPMIPPRP, -0.0361; that for RRIRDRPPRLPRPRPRPCPMPRP, -0.292.
For the sequence RRIRGRPPRLPRPRPRPLLQPRP, the “shrunken log2 fold change” value was 0.486.
In the case of RRIRERPPRLPRPRPRPFEAPRP it was -0.342; in that of RRIRCRPPRLPRPRPRPYNAPRP, -1.23; in that of RRIRLRPPRLPRPRPRPYYSPRP, -0.309.
On to RRIRKRPPRLPRPRPRPHNAPRP, for which the “shrunken log2 fold change” value came out at 0.0979.
As for RRIRWRPPRLPRPRPRPKTQPRP, the “shrunken log2 fold change” value was 0.0326.
In the case of RRIRIRPPRLPRPRPRPNINPRP it was -0.918.
The result for RRIRKRPPRLPRPRPRPEYCPRP reads 0.109.
In the case of RRIRKRPPRLPRPRPRPYSQPRP it was 0.0349; in that of RRIRLRPPRLPRPRPRPGPYPRP, -0.215.
On to RRIRTRPPRLPRPRPRPDPNPRP, for which the “shrunken log2 fold change” value was found to be 0.0586.
Regarding RRIRMRPPRLPRPRPRPEIAPRP, the “shrunken log2 fold change” value was 0.0315.
In the case of RRIRMRPPRLPRPRPRPQRHPRP, the “shrunken log2 fold change” value was 0.348.
With RRIRDRPPRLPRPRPRPAYDPRP, the “shrunken log2 fold change” value turned out to be 0.0094.
RRIRTRPPRLPRPRPRPDSNPRP: the “shrunken log2 fold change” value was determined as 0.0255.
In the case of RRIRIRPPRLPRPRPRPLKYPRP it was -0.0551.
In the case of RRIRARPPRLPRPRPRPRCAPRP it was 0.716.
The result for RRIRWRPPRLPRPRPRPQWEPRP reads -0.0152; that for RRIRQRPPRLPRPRPRPRAGPRP, 0.389; that for RRIRIRPPRLPRPRPRPSNMPRP, -0.353.
With RRIRMRPPRLPRPRPRPGGSPRP, the “shrunken log2 fold change” value was 1.07.
The result for RRIRGRPPRLPRPRPRPEKSPRP reads 0.0928; that for RRIRCRPPRLPRPRPRPFTTPRP, -0.286; that for RRIRVRPPRLPRPRPRPPLGPRP, 0.554.
The result for RRIRLRPPRLPRPRPRPYMVPRP reads -0.288.
With RRIRQRPPRLPRPRPRPKSEPRP, the “shrunken log2 fold change” value was -0.0211.
Consider RRIRYRPPRLPRPRPRPWKPPRP, for which the “shrunken log2 fold change” value is -0.2.
As to RRIRKRPPRLPRPRPRPRLYPRP, the “shrunken log2 fold change” value is 0.0187.
In the case of RRIRVRPPRLPRPRPRPIASPRP, the “shrunken log2 fold change” value turned out to be 0.171.
Turning to RRIRLRPPRLPRPRPRPCIDPRP, the “shrunken log2 fold change” value is -0.166.
Consider RRIRIRPPRLPRPRPRPSLCPRP, for which the “shrunken log2 fold change” value is -0.242.
In the case of RRIRWRPPRLPRPRPRPYVPPRP it was -0.837; in that of RRIRDRPPRLPRPRPRPEPEPRP, 0.579; in that of RRIRSRPPRLPRPRPRPSNDPRP, -0.349.
RRIRQRPPRLPRPRPRPSCPPRP: the “shrunken log2 fold change” value was -0.037.
Consider RRIRTRPPRLPRPRPRPRTIPRP, for which the “shrunken log2 fold change” value is 0.0752.
The result for RRIRYRPPRLPRPRPRPSDKPRP reads -0.194; that for RRIRMRPPRLPRPRPRPHKSPRP, 0.223; that for RRIRFRPPRLPRPRPRPLTIPRP, -0.219.
In the case of RRIRCRPPRLPRPRPRPLGEPRP it was 0.277; in that of RRIRMRPPRLPRPRPRPPLEPRP, 0.873.
The result for RRIRARPPRLPRPRPRPAALPRP reads 0.805.
As to RRIRGRPPRLPRPRPRPSWWPRP, the “shrunken log2 fold change” value was determined as 0.537.
The result for RRIRRRPPRLPRPRPRPHLTPRP reads -0.132.
RRIRVRPPRLPRPRPRPAPAPRP: the “shrunken log2 fold change” value was determined as 0.626.
Regarding RRIRVRPPRLPRPRPRPHIEPRP, the “shrunken log2 fold change” value is -0.763.
